In the assay the target is RAB1A (Homo sapiens (Human), UniProt P62820). Put plainly: BLI. (In BLI a coated tip is dipped into the sample, and binding shifts an interference pattern.)
RAB1A, sequence (P62820 6-177): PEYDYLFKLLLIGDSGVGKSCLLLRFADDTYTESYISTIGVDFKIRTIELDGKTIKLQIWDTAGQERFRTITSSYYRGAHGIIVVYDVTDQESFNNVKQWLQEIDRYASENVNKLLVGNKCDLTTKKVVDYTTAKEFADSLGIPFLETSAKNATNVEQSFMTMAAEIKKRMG

B1: WDR44 (protein)
chain: VMGPQRPRSNSGRELTDEEILASVMIKNLDTGEEIPLSLAEEKLPTGINPLTLHIM
In turn, B1 returned a Kd of over 500 nM.

What is called Kd is the equilibrium constant for the complex coming apart. A higher Kd goes with a looser complex.

The record behind these values is article PMC9808001 (2022).
